Like-named read-outs stand apart in the source and are kept apart here.
How the values were obtained:
Test in all cases: limited trypsin proteolysis
SpyCas9 [1] = molecular target: T1, SpyCas9 (Streptococcus pyogenes, UniProt Q99ZW2 1-1368)
FnoCas9 [2] = molecular target: T2, FnoCas9 (Francisella tularensis novicida, UniProt A0Q5Y3 1-1629)
SpyCas9 [3] = molecular target: T1, SpyCas9; remark: listed apart in the source
FnoCas9 [4] = molecular target: T2, FnoCas9; remark: listed apart in the source

T2 sequence (A0Q5Y3 whole entry): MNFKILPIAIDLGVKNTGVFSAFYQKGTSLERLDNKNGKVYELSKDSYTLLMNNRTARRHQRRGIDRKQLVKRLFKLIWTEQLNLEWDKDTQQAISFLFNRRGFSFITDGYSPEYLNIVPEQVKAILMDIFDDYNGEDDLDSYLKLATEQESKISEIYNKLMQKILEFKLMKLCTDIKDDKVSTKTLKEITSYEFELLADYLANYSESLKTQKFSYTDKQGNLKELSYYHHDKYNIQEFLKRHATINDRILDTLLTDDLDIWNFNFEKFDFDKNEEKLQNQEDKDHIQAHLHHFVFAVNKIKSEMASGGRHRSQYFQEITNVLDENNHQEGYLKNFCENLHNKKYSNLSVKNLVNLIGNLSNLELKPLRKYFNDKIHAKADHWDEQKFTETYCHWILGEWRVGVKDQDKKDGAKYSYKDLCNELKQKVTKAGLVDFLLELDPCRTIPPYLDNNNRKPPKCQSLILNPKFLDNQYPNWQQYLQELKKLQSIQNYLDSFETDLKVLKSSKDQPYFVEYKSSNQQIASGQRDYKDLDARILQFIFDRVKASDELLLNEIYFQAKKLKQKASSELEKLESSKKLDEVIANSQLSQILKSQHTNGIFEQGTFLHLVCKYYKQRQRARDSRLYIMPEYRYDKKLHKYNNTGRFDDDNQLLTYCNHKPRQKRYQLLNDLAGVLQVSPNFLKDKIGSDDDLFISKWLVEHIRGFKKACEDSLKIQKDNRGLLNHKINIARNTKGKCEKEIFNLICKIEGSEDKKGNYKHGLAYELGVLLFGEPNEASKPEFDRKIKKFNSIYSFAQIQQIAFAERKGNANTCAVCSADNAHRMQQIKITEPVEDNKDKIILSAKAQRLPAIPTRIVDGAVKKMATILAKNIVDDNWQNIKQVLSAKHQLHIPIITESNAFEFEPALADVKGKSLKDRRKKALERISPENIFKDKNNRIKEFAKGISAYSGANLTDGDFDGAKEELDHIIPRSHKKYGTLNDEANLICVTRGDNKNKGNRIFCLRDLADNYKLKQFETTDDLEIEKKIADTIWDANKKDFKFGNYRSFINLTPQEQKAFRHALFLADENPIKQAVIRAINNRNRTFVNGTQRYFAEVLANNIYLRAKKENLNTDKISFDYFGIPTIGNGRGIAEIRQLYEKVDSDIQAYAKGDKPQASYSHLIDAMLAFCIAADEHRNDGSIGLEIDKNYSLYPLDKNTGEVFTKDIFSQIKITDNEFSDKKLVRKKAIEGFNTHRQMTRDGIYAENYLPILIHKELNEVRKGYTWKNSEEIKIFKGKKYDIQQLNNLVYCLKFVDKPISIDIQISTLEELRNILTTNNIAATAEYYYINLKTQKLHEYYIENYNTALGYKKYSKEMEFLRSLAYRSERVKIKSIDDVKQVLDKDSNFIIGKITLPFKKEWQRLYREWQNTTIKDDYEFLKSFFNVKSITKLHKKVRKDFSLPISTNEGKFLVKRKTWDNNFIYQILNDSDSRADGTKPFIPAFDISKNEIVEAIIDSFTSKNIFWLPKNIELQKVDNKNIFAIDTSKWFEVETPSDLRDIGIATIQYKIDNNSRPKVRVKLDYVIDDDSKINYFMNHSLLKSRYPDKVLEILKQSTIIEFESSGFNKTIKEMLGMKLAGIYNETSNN
T1 sequence (Q99ZW2 whole entry): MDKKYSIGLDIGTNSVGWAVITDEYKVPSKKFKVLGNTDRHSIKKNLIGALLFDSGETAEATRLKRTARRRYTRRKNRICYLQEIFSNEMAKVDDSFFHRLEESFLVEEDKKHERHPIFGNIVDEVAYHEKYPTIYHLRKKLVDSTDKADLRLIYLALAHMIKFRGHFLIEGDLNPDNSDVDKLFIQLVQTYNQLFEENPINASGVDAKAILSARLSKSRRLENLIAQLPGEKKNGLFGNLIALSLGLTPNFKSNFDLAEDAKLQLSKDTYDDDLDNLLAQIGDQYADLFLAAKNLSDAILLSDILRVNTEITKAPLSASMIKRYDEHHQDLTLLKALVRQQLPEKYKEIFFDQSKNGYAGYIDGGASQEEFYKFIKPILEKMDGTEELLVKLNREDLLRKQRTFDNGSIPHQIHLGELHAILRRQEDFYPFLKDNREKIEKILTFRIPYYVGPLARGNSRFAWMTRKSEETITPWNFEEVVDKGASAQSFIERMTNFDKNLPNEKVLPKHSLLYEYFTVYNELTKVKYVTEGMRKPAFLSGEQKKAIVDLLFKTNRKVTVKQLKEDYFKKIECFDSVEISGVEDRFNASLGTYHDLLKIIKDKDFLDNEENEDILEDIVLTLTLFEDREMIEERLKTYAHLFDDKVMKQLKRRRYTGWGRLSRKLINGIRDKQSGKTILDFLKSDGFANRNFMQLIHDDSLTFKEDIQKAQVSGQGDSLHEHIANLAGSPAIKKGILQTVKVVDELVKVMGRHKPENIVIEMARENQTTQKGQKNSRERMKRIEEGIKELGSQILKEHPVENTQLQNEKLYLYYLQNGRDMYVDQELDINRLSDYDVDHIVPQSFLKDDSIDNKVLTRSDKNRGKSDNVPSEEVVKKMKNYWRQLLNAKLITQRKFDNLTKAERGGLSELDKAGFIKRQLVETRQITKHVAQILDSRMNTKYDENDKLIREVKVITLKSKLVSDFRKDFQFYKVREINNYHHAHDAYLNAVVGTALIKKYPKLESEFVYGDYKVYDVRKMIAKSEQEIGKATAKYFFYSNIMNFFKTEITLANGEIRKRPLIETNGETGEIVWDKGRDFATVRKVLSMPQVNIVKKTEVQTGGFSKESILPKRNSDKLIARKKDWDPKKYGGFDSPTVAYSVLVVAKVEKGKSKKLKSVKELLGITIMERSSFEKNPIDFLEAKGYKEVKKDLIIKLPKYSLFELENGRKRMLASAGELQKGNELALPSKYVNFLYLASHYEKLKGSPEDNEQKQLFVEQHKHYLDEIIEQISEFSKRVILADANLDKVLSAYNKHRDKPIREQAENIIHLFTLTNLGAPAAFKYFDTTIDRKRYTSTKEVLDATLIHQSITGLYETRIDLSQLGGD

B1: 60-mer ss oligo (197-FR) (ssDNA)
DNA: AGCAGATTGTACTGAGAGTGCACCATATGCGGTGTGAAATACCGCACAGATGCGTAAGGA
SpyCas9 [1]
  binding result: binds
FnoCas9 [2]
  binding result: binds

B2: SpyCas9 sgRNA (structured_RNA)
RNA: GGGAUUUCUUCUUGCGCUUUUUGUUUUAGAGCUAUGCUGUUUUGGAAACAAAACAGCAUAGCAAGUUAAAAUAAGGCUAGUCCGUUAUCAACUUGAAAAAGUGGCACCGAGUCGGUGCUUUUUU
SpyCas9 [3]
  binding result: binds

B3: FnoCas9 crRNA-tracrRNA (structured_RNA)
RNA 1: GGGAUAACUCAAUUUGUAAAAAAGUUUCAGUUGCUGAAUUAUUUGGUAAAC
RNA 2: GGGCCAAAUAAUUAAUGCUCUGUAAUCAUUUAAAAGUAUUUUGAACGGACCUCUGUUUGACACGUCUGAAUAACUAAAAAGCAAAAAUUUGCCACCUAAGUGGCUUUUUUU
FnoCas9 [4]
  binding result: binds
